Where two headings read alike, the source gives them in different places.

The target in data set [1] is T1, AtARF5-DBD (Arabidopsis thaliana, UniProt P93024 1-390).
T1 sequence: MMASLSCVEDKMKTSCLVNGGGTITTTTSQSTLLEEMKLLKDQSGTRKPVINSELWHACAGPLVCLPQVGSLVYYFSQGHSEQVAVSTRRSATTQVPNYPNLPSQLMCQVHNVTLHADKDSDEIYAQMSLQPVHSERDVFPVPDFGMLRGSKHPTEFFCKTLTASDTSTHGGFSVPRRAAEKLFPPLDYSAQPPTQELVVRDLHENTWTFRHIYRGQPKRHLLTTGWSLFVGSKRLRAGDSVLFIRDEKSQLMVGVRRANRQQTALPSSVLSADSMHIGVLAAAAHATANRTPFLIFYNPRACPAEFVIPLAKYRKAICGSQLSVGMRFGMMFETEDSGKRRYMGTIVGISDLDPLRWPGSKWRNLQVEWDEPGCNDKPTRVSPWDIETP
Briefly: Ni-NTA pull-down with SYBR Gold fluorescence.

Data set [2] has as its target T1, AtARF5-DBD. Briefly: Ni-NTA pull-down with SYBR Gold fluorescence. This is another data set of the same source.

B1: ER7-GG (dsDNA)
DNA 1: CCGGTAGGTTGTCGGCCAAAGGCCGACAACCGGTAGG
DNA 2: CCTACCGGTTGTCGGCCTTTGGCCGACAACCTACCGG
In the case of B1, the binding result with AtARF5-DBD [1] is on record as “binds”.

B2: ER7 (dsDNA)
DNA 1: CCGGTAGGTTGTCTCCCAAAGGGAGACAACCGGTAGG
DNA 2: CCTACCGGTTGTCTCCCTTTGGGAGACAACCTACCGG
Turning to B2, the binding result with AtARF5-DBD [2] was “binds”.

For the origin of these results see paper doi:10.1101/634816.
